Data: patent publication EP4471049A1 (Zealand Pharma A/S, priority 2023, dated 2024)
*1 amine or outer side, *2 acyl side, *3 side chain or, on linkers, in order; H or OH if unused. Bridges are numbered along the chain shown (N, C = ends). [ ]: non-standard residue; d: D form. 4‑Aminomethyl‑phenylacetyl = 4-aminomethyl-phenylacetyl unit, its amine closes the lactam, O=C(Cc1ccc(CN[*:1])cc1)[*:2]; αMeAla(3-pyridyl) = C[C@](N)(Cc1cccnc1)C(=O)O; 2Nal = N[C@@H](Cc1ccc2ccccc2c1)C(=O)O; AEF = NCCOc1ccc(C[C@H](N)C(=O)O)cc1; NMe3Pal = CN[C@@H](Cc1cccnc1)C(=O)O; 3Pal = N[C@@H](Cc1cccnc1)C(=O)O; d3Pal = N[C@H](Cc1cccnc1)C(=O)O; αMeL = CC(C)C[C@](C)(N)C(=O)O; β3hL = CC(C)C[C@H](N)CC(=O)O; Dab = NCC[C@H](N)C(=O)O; Sar = CNCC(=O)O

T1: Nluc-IL23R fusion protein (human, UniProt Q5VWK5 22-629)
T1 construct: range 22-629; expressed with a secretion signal in HEK293 cells; used as crude membrane preparation; also called hIL-23R; human IL-23R; not shown: Nanoluc protein from the expression plasmid N1371 (Promega), N-terminal of IL-23R
T1 sequence (looked up): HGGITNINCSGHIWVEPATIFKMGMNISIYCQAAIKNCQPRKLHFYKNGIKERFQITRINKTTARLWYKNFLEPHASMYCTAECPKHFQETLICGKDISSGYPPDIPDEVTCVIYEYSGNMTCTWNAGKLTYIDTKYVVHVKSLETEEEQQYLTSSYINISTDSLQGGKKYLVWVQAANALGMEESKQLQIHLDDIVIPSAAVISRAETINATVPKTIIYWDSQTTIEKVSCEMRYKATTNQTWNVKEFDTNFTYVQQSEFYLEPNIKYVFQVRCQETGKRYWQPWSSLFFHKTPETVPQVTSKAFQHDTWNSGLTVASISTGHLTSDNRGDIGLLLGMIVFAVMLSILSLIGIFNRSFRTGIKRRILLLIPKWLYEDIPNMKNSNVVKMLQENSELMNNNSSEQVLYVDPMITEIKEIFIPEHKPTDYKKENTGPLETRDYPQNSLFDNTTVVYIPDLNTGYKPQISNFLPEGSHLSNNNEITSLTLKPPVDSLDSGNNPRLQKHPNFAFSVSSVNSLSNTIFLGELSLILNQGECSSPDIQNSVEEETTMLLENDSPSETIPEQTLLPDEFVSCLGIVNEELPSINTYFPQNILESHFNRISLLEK

T2: human IL-23R endogenously expressed on DB cells (human, UniProt Q5VWK5 24-629)
T2 sequence (looked up): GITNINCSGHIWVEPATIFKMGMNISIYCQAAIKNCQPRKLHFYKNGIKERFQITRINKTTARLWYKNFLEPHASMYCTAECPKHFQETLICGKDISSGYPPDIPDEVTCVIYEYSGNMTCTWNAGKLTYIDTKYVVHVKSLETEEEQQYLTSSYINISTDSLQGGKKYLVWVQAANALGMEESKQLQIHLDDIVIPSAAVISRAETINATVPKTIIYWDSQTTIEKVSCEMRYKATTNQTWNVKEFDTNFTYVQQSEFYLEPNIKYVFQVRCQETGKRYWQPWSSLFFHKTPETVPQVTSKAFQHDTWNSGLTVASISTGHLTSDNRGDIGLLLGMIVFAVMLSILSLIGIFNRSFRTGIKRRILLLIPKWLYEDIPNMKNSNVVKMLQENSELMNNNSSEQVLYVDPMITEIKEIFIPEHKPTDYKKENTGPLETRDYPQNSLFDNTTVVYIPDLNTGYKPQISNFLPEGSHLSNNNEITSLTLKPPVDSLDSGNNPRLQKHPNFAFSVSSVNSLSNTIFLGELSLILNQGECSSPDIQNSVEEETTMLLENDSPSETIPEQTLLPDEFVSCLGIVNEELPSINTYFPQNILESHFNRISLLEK

B1: Compound 11 (peptide)
peptide: [4‑Aminomethyl‑phenylacetyl]SEWQ[Dab][AEF][2Nal][αMeL]E[Dab][3Pal][β3hL]-NH2
modifications: lactam N-10, 3-6
SMILES: CC(C)C[C@@H](CC(N)=O)NC(=O)[C@H](Cc1cccnc1)NC(=O)[C@H](CCN)NC(=O)[C@@H]1CCC(=O)NCc2ccc(cc2)CC(=O)N[C@@H](CO)C(=O)N[C@H]2CCC(=O)NCC[C@H](NC(=O)[C@H](CCC(N)=O)NC(=O)[C@H](Cc3c[nH]c4ccccc34)NC2=O)C(=O)N[C@@H](Cc2ccc(OCCN)cc2)C(=O)N[C@@H](Cc2ccc3ccccc3c2)C(=O)N[C@@](C)(CC(C)C)C(=O)N1
B2: Compound 10 (peptide)
peptide: [4‑Aminomethyl‑phenylacetyl]SEWQ[Dab][AEF][2Nal][αMeL]E[Dab][3Pal][dH]-NH2
modifications: lactam N-10, 3-6
SMILES: CC(C)C[C@]1(C)NC(=O)[C@H](Cc2ccc3ccccc3c2)NC(=O)[C@H](Cc2ccc(OCCN)cc2)NC(=O)[C@@H]2CCNC(=O)CC[C@H](NC(=O)[C@H](CO)NC(=O)Cc3ccc(cc3)CNC(=O)CC[C@@H](C(=O)N[C@@H](CCN)C(=O)N[C@@H](Cc3cccnc3)C(=O)N[C@H](Cc3c[nH]cn3)C(N)=O)NC1=O)C(=O)N[C@@H](Cc1c[nH]c3ccccc13)C(=O)N[C@@H](CCC(N)=O)C(=O)N2
B3: Compound 9 (peptide)
peptide: [4‑Aminomethyl‑phenylacetyl]SEWQ[Dab][AEF][2Nal][αMeL]E[Dab][3Pal][Sar]-NH2
modifications: lactam N-10, 3-6
SMILES: CC(C)C[C@]1(C)NC(=O)[C@H](Cc2ccc3ccccc3c2)NC(=O)[C@H](Cc2ccc(OCCN)cc2)NC(=O)[C@@H]2CCNC(=O)CC[C@H](NC(=O)[C@H](CO)NC(=O)Cc3ccc(cc3)CNC(=O)CC[C@@H](C(=O)N[C@@H](CCN)C(=O)N[C@@H](Cc3cccnc3)C(=O)N(C)CC(N)=O)NC1=O)C(=O)N[C@@H](Cc1c[nH]c3ccccc13)C(=O)N[C@@H](CCC(N)=O)C(=O)N2
B4: Compound 3 (peptide)
peptide: [4‑Aminomethyl‑phenylacetyl]SEWQ[Dab][AEF][2Nal][αMeL]E[Dab][αMeAla(3-pyridyl)]-NH2
modifications: lactam N-10, 3-6
SMILES: CC(C)C[C@]1(C)NC(=O)[C@H](Cc2ccc3ccccc3c2)NC(=O)[C@H](Cc2ccc(OCCN)cc2)NC(=O)[C@@H]2CCNC(=O)CC[C@H](NC(=O)[C@H](CO)NC(=O)Cc3ccc(cc3)CNC(=O)CC[C@@H](C(=O)N[C@@H](CCN)C(=O)N[C@@](C)(Cc3cccnc3)C(N)=O)NC1=O)C(=O)N[C@@H](Cc1c[nH]c3ccccc13)C(=O)N[C@@H](CCC(N)=O)C(=O)N2
B5: Compound 4 (peptide)
peptide: [4‑Aminomethyl‑phenylacetyl]SEWQ[Dab][AEF][2Nal][αMeL]E[Dab][NMe3Pal]-NH2
modifications: lactam N-10, 3-6
B6: Compound 8 (peptide)
peptide: [4‑Aminomethyl‑phenylacetyl]SEWQ[Dab][AEF][2Nal][αMeL]E[Dab][3Pal]-NHMe
modifications: lactam N-10, 3-6
B7: Ref 52 (peptide)
peptide: [4‑Aminomethyl‑phenylacetyl]SCWQC[AEF][2Nal][αMeL]ER-NH2
modifications: lactam N-10; bridge 3-6; not fully specified (bridges); printed as [4-Aminomethyl-phenylacetyl](1c)*SC(2a)WQC(2a)[Y(2-aminoethoxy)][2-Nal][2-Me-Leu]E(1c)R-[NH2]
notes: Y = Y(2-aminoethoxy)
B8: Compound C (peptide)
peptide: XQTWQCYWXENG
modifications: [Ac]-[Abu](16i)QTWQC(16i)[Y(2-aminoethoxy)]W[2-Me-Lys]ENG-[NH2]; (16i) [2,7] thioether bridge (cystathionine); N-terminal acetyl, C-terminal amide
notes: Y = Y(2-aminoethoxy)
B9: Ref 80 (peptide)
peptide: [4‑Aminomethyl‑phenylacetyl]SCWQC[AEF][2Nal][αMeL]E[dR]-NH2
modifications: lactam N-10; bridge 3-6; not fully specified (bridges); printed as [4-Aminomethyl-phenylacetyl](1c)*SC(2a)WQC(2a)[Y(2-aminoethoxy)][2-Nal][2-Me-Leu]E(1c)[{d}R]-[NH2]
notes: Y = Y(2-aminoethoxy), R = D-Arg
B10: I1 (isomer 3) (peptide)
peptide: H-GCTCWECWWLCS-NH2
modifications: bridge 4-7, 2-11; not fully specified (bridges)
notes: compound from Heinis et al., 2020, synthesised for comparison
B11: Compound 5 (peptide)
peptide: [4‑Aminomethyl‑phenylacetyl]SEWQ[Dab][AEF][2Nal][αMeL]E[Dab][d3Pal]-NH2
modifications: lactam N-10, 3-6

Target: T1, Nluc-IL23R fusion protein
Experiment: BRET competition vs TAMRA-labelled peptide, Nluc-IL23R membranes

Binder | % displacement (hIL-23R binding) [%] | IC50 [pM]
B1 | 103 | 24
B2 | 91 | 
B3 | 100 | 

Target: T2, human IL-23R endogenously expressed on …
Experiment: cell-based or functional assay

Binder | IC50 (pSTAT3)
B1 | 0.68 nM
B2 | 38 pM
B3 | 25 pM

Target: T2, human IL-23R endogenously expressed on …
Experiment: cell-based or functional assay
Remark: another data set of the same source

Binder | IC50 (pSTAT3)
B4 | 1.7 nM
B5 | 6.5 nM
B6 | 53 pM

Target: T1, Nluc-IL23R fusion protein
Experiment: BRET competition vs TAMRA-labelled peptide, Nluc-IL23R membranes
Remark: another data set of the same source

Binder | % displacement (hIL-23R binding) [%] | IC50 [pM]
B7 | 100 | 58
B8 | 102 | 2600
B9 | 98 | 180
B10 | 105 | 130000

Target: T1, Nluc-IL23R fusion protein
Experiment: Ki from BRET competition (Cheng-Prusoff), Nluc-IL23R membranes

Binder | Ki [pM]
B7 | 47.5
B8 | 2110
B9 | 150
B10 | 104000

Target: T2, human IL-23R endogenously expressed on …
Experiment: cell-based or functional assay
Remark: another data set of the same source

Binder | IC50 (pSTAT3) [nM]
B11 | 2.1

Target: T2, human IL-23R endogenously expressed on …
Experiment: cell-based or functional assay
Remark: another data set of the same source

Binder | hIL-23 (pSTAT3) antagonist % inhibition [%] | hIL-23 (pSTAT3) antagonist IC50
B4 | 98 | 1.7 nM
B7 | 103 | 7.8 nM
B11 | 95 | 2.1 nM
B1 | 98 | 0.68 nM
B8 | 99 | 13 nM
B2 | 99 | 38 pM
B9 | 97 | 11 nM
B10 | 83 | 
B3 | 97 | 25 pM
B5 | 100 | 6.5 nM
B6 | 101 | 53 pM

Target: T1, Nluc-IL23R fusion protein
Experiment: BRET competition vs TAMRA-labelled peptide, Nluc-IL23R membranes
Remark: another data set of the same source

Binder | % displacement (hIL-23R binding) [%] | IC50 [pM]
B4 | 99 | 
B11 | 99 | 
B5 | 111 | 170
B6 | 103 | 

Target: T1, Nluc-IL23R fusion protein
Experiment: as above
Remark: another data set of the same source

Binder | IC50 [pM]
B7 | 58
B8 | 2600
B9 | 180
B10 | 130000
